Data as given in US20140120543A1 (INSTITUTE GUSTAVE ROUSSY, published 2014).

T1: DNA repair endonuclease XPF (human, UniProt Q92889 1-916)
T1 construct: Endogenous protein of the human A549 cell line, inside fixed cells; also called encoded by the ERCC4 gene
T1 sequence: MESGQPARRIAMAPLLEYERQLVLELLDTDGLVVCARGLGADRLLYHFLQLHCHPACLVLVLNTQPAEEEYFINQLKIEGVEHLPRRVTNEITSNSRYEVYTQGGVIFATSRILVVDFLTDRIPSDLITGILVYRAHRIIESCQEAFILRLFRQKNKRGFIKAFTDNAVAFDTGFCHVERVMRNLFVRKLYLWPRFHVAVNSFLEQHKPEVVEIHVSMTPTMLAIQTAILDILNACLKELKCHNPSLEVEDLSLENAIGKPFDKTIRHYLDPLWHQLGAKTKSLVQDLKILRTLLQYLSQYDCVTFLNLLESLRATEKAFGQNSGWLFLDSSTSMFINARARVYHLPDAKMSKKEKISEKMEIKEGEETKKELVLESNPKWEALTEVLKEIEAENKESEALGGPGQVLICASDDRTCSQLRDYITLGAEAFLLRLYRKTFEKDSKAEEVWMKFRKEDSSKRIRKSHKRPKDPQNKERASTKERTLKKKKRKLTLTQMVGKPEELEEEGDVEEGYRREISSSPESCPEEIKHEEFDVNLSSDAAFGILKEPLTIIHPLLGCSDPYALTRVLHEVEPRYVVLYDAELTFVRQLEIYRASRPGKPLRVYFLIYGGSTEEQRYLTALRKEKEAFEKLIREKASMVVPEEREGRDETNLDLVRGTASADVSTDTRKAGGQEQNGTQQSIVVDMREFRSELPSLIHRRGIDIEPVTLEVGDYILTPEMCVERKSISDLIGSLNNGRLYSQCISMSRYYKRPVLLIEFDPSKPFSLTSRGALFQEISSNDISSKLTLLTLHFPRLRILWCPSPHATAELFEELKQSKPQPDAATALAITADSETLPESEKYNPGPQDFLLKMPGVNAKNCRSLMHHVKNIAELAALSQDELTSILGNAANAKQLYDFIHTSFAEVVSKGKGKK

T2: protein TRF2 (telomeric repeat-binding factor 2) (human, UniProt Q15554 1-542)
T2 construct: Endogenous protein of the human A549 cell line, inside fixed cells; also called encoded by the TERF2 gene
T2 sequence: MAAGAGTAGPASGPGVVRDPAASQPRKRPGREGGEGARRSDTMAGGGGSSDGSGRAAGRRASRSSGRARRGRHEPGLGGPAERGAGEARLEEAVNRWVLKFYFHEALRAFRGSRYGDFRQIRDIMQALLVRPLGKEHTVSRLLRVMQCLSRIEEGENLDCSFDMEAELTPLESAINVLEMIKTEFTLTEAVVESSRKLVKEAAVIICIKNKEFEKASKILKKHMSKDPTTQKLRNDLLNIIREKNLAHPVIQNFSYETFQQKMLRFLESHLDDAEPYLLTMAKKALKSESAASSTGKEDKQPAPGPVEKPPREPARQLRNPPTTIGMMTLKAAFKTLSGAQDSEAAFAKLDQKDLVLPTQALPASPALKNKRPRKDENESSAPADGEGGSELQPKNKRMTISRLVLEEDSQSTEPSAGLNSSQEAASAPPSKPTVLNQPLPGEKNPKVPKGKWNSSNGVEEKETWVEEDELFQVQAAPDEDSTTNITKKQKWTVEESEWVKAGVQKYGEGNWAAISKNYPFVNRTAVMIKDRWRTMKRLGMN

T3: Fanconi anemia Group G protein FANC G (human, UniProt O15287 1-622)
T3 construct: Endogenous protein of the human A549 cell line, inside fixed cells; also called Fanconi anemia complementation group G
T3 sequence: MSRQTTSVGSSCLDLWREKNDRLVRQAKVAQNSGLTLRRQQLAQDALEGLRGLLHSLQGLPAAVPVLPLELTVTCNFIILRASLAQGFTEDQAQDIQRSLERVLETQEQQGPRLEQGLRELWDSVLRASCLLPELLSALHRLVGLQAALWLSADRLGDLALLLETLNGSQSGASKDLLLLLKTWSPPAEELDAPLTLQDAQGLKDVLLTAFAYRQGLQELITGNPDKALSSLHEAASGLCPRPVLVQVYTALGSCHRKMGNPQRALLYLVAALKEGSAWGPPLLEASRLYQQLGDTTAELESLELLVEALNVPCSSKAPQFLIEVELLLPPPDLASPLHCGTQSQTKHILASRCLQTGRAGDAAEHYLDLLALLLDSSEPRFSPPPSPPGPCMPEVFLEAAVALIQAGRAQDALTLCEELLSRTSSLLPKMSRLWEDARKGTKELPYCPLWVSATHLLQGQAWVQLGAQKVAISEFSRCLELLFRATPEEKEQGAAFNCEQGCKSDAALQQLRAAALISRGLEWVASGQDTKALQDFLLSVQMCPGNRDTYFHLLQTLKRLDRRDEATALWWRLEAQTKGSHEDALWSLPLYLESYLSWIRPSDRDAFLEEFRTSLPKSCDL

T4: kinesin Eg5 (human, UniProt P52732 1-1056)
T4 construct: Endogenous protein of the human A549 cell line, inside fixed cells; also called encoded by the KIF11 gene
T4 sequence: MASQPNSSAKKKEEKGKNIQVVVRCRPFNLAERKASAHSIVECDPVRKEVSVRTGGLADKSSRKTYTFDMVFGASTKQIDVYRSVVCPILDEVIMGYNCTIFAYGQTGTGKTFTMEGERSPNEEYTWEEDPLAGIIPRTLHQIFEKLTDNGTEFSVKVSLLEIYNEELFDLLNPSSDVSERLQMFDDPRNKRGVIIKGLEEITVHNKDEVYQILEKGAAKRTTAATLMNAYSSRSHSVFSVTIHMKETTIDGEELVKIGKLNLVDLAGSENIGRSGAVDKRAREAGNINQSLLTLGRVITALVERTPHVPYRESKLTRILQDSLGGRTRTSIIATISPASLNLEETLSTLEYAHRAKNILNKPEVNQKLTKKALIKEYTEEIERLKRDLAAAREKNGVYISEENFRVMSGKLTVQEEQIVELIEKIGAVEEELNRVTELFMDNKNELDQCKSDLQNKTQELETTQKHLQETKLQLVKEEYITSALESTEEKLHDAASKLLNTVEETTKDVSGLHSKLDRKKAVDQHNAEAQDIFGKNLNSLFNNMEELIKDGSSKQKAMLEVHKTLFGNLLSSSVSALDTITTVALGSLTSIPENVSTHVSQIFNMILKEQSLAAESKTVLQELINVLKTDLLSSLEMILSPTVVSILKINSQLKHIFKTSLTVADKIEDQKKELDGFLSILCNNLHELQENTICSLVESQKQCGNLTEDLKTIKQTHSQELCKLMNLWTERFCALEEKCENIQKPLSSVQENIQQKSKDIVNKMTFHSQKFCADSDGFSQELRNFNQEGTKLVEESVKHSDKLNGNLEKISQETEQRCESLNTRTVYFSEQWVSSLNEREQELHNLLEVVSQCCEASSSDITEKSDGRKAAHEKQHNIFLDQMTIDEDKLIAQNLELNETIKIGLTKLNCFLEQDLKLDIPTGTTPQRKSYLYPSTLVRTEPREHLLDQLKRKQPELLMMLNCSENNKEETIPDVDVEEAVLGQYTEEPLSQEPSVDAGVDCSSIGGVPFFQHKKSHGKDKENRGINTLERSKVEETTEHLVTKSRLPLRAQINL


How the values were obtained:
[1] = target: T1, DNA repair endonuclease XPF; assay: proximity ligation assay (Duolink) in ERCC1-deficient A549 cells re-expressing one isoform
Procedure: (§1) Protein interactions were studied using the Duolink II proximity ligation assays (PLA) kit (Olink, Uppsala, Sweden). Coverslips were processed according to the manufacturer's instructions. In brief, the cells were fixed with methanol, permeabilized with triton, stained with the primary antibodies, and then incubated with the secondary oligonucleotide-linked antibodies. The oligonucleotides were hybridized, ligated, amplified, and detected using a fluorescent probe.
Using proximity ligation assays (PLA-Duolink) technology, we investigated the binding ability of ERCC1 isoforms with ERCC1 interacting proteins.

[2] = target: T2, protein TRF2 (telomeric repeat-binding …); assay: proximity ligation assay (Duolink), ERCC1 detected with FL297 antibody
Procedure: (§2) ERCC1 was detected using FL297 antibody.
as §1

[3] = target: T3, Fanconi anemia Group G protein FANC G; assay: as above
Procedure: as §2, §1

[4] = target: T4, kinesin Eg5; assay: as above
Procedure: as §2, §1

binding result [1]	binding result [2]	binding result [3]	binding result [4]	Binder
no binding				ERCC1-201 isoform (other, Re-expressed in ERCC1-deficient A549 clone 216; Detected inside fixed, permeabilised cells by PLA; also called isoform 201) MDPGKDKEGVPQPSGPPARKKFVIPLDEDEVPPGVAKPLFRSTQSLPTVDTSAQAAPQTYAEYAISQPLEGAGATCPTGSEPLAGETPNQALKPGAKSNSIIVSPRQRGNPVLKFVRNVPWEFGDVIPDYVLGQSTCALFLSLRYHNLHPDYIHGRLQSLGKNFALRVLLVQVDVKDPQQALKELAKMCILADCTLILAWSPEEAGRYLETYKAYEQKPADLLMEKLEQDFVSRVTECLTTVKSVNKTDSQTLLTTFGSLEQLIAASREDLALCPGLGPQKVRALGKNPRSWGKERAPNKHNLRPQSFKVKKEPKTRHSGFRL
no binding				ERCC1-204 isoform (other, Re-expressed in ERCC1-deficient A549 clone 216; Detected inside fixed, permeabilised cells by PLA; also called isoform 204) MDPGKDKEGVPQPSGPPARKKFVIPLDEDEVPPGVRGNPVLKFVRNVPWEFGDVIPDYVLGQSTCALFLSLRYHNLHPDYIHGRLQSLGKNFALRVLLVQVDVKDPQQALKELAKMCILADCTLILAWSPEEAGRYLETYKAYEQKPADLLMEKLEQDFVSRVTECLTTVKSVNKTDSQTLLTTFGSLEQLIAASREDLALCPGLGPQKARRLFDVLHEPFLKVP
no binding				ERCC1-203 isoform (other, Re-expressed in ERCC1-deficient A549 clone 216; Detected inside fixed, permeabilised cells by PLA; also called isoform 203) MDPGKDKEGVPQPSGPPARKKFVIPLDEDEVPPGVAKPLFRSTQSLPTVDTSAQAAPQTYAEYAISQPLEGAGATCPTGSEPLAGETPNQALKPGAKSNSIIVSPRQRGNPVLKFVRNVPWEFGDVIPDYVLGQSTCALFLSLRYHNLHPDYIHGRLQSLGKNFALRVLLVQVDVKDPQQALKELAKMCILADCTLILAWSPEEAGRYLETYKAYEQKPADLLMEKLEQDFVSRSLEQLIAASREDLALCPGLGPQKARRLFDVLHEPFLKVP
	binds	binds	binds	ERCC1-202 isoform (isoform 202 of the ERCC1 protein) (other, Re-expressed in ERCC1-deficient A549 clone 216; Detected inside fixed, permeabilised cells by PLA, not on the cell surface) MDPGKDKEGVPQPSGPPARKKFVIPLDEDEVPPGVAKPLFRSTQSLPTVDTSAQAAPQTYAEYAISQPLEGAGATCPTGSEPLAGETPNQALKPGAKSNSIIVSPRQRGNPVLKFVRNVPWEFGDVIPDYVLGQSTCALFLSLRYHNLHPDYIHGRLQSLGKNFALRVLLVQVDVKDPQQALKELAKMCILADCTLILAWSPEEAGRYLETYKAYEQKPADLLMEKLEQDFVSRVTECLTTVKSVNKTDSQTLLTTFGSLEQLIAASREDLALCPGLGPQKARRLFDVLHEPFLKVP
